± gives the uncertainty stated by the source.
Test: self-splicing fitness, log relative to wild type (ln ratio); higher = more splicing; Tetrahymena group I intron in knt gene, E. coli kanamycin selection, DiMSum; sequences stand for … in CUCUCU…GGAGGGAAAAGUUAUCAGGCAUGCACCUGGUAGCUAGUCUUUAAACCAAUAGAUUGCAUCGGUUUAAAAGGCAAGACCGUCAAAUUGCGGGAAAGGGGUCAACAGCCGUUCAGUACCAAGUCUCAGGGGAAACUUUGAGAUGGCCUUGCAAAGGGUAUGGUAAUAAGCUGACGGACAUGGUCCUAACCACGCAGCCAAGUCCUAAGUCAACAGAUCUUCUGUUGAUAUGGAUGCAGUUCACAGACUAAAUGUCGGUCGGGGAAGAUGUAUUCUUCUCAUAAGAUAUAGUCGGACCUCUCCUUAAUGGGAGCUAGCGGAUGAAGUGAUGCAACACUGGAGCCGCUGGGAACUAAUUUGUAUGCGAAAGUAUAUUGAUUAGUUUUGGAGUACUCGUGGUCG
Summary of the method: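 DiMSum derived fitness as the error-weighted combination of fold changes across replicates, kanamycin versus no kanamycin, normalised to wild type. E. coli BL21(DE3) held the library, which randomised all eight P1ex-region intron nucleotides within the knt kanamycin-resistance gene on pET-22b(+). Six replicate transformations grew overnight at 37°C or 30°C on LB agar with or without 25 μg/mL kanamycin, also containing 100 μg/mL carbenicillin, 50 μM IPTG and 0.2% rhamnose, and pooled colonies were amplicon-sequenced on an Illumina HiSeq 2500.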

Sequence | self-splicing fitness (ln) (30 °C) | self-splicing fitness (ln) (37 °C)
GUGCAGCAAUAUUACGACUA | -0.908 ± 0.24 | -0.48 ± 0.26
UCAUAGCAAUAUUACGCAGA | -2.93 ± 0.34 | -2.7 ± 0.24
CUCCAGCAAUAUUACGUUUG | -3.57 ± 0.12 | -2.1 ± 0.11
AAAUAGCAAUAUUACGCCUC | -1.6 ± 0.14 | -0.0982 ± 0.17
ACAUAGCAAUAUUACGGGAC | -3.23 ± 0.14 | -1.37 ± 0.12
CAGGAGCAAUAUUACGCAGU | -2 ± 0.31 | -1.44 ± 0.29
CGGUAGCAAUAUUACGUAUC | -2.67 ± 0.15 | -2.83 ± 0.29
GGGCAGCAAUAUUACGGCAC | -1.17 ± 0.16 | -0.328 ± 0.17
CUACAGCAAUAUUACGUAUG | -2.21 ± 0.09 | -1.35 ± 0.091
GUGCAGCAAUAUUACGGGCG | -1.82 ± 0.092 | -0.512 ± 0.11
GUCUAGCAAUAUUACGGUUA | -0.904 ± 0.15 | -0.443 ± 0.13
CCCUAGCAAUAUUACGUGGC | -3.35 ± 0.18 | -2.68 ± 0.16
CGAAAGCAAUAUUACGGCUU | -4.2 ± 0.22 | -2.79 ± 0.3
UGAAAGCAAUAUUACGGCUA | 0.376 ± 0.092 | 0.259 ± 0.11
AGAGAGCAAUAUUACGACUU | -1.7 ± 0.15 | -0.522 ± 0.15
UUUAAGCAAUAUUACGGCGG | -0.0601 ± 0.13 | -0.212 ± 0.18
CCGUAGCAAUAUUACGCCGA | -2.64 ± 0.22 | -1.99 ± 0.19
UUACAGCAAUAUUACGAUUA | -0.238 ± 0.094 | -0.0645 ± 0.089
UAGUAGCAAUAUUACGGGCC | -2.91 ± 0.23 | -1.62 ± 0.22
UGGUAGCAAUAUUACGAAAU | -2.72 ± 0.28 | -3.17 ± 0.31

Sequence | self-splicing fitness (ln) (30 °C) | self-splicing fitness (ln) (37 °C)
GAGAAGCAAUAUUACGAACG | -0.734 ± 0.12 | -0.343 ± 0.17
GCCUAGCAAUAUUACGACCG | -1.8 ± 0.34 | -0.867 ± 0.39
GCUAAGCAAUAUUACGUAUC | -0.952 ± 0.082 | -0.277 ± 0.1
GAUUAGCAAUAUUACGGUGU | -2.74 ± 0.09 | -0.798 ± 0.083
GGUAAGCAAUAUUACGGAGU | -3.39 ± 0.22 | -1.73 ± 0.18
AUGUAGCAAUAUUACGUAGG | -3.93 ± 0.19 | -1.43 ± 0.096
UACUAGCAAUAUUACGUCGA | -2.11 ± 0.12 | -0.821 ± 0.12
UUGAAGCAAUAUUACGUCUU | -3.1 ± 0.18 | -1.24 ± 0.12
CCGGAGCAAUAUUACGGUCA | -4.22 ± 0.47 | 
CAGUAGCAAUAUUACGGCGU | -2.25 ± 0.12 | -0.753 ± 0.14
AACGAGCAAUAUUACGUACA | -3.11 ± 0.17 | -2.19 ± 0.14
UAGCAGCAAUAUUACGCCCG | -0.432 ± 0.18 | -0.57 ± 0.21
CUGGAGCAAUAUUACGUGCA | -3.46 ± 0.41 | 
CAGGAGCAAUAUUACGCCUG | -3.09 ± 0.29 | -1.01 ± 0.22
AGAUAGCAAUAUUACGUCUU | -2.52 ± 0.14 | -2.07 ± 0.17
UCGAAGCAAUAUUACGGACA | -0.385 ± 0.15 | -0.235 ± 0.23
CAAGAGCAAUAUUACGGGCC |  | -2.71 ± 0.31
GAGGAGCAAUAUUACGCAUA | -1.86 ± 0.35 | 
CCGUAGCAAUAUUACGCGUC | -3.42 ± 0.15 | -1.78 ± 0.15

Reference: the supplement of paper PMC7877785
